For this experiment, the target named is probable NS4B (27 kDa), expressed from pTM1-NS25 (hepatitis C virus, UniProt P26664). The experiment in a line: co-immunoprecipitation with anti-E2 antibody from lysates of cells co-transfected with pTM1-NS25.

B1: E2 species encoded by the template terminating at amino acid 699 (other)
chain: ETHVTGGSAGHTVSGFVSLLAPGAKQNVQLINTNGSWHLNSTALNCNDSLNTGWLAGLFYHHKFNSSGCPERLASCRPLTDFDQGWGPISYANGSGPDQRPYCWHYPPKPCGIVPAKSVCGPVYCFTPSPVVVGTTDRSGAPTYSWGENDTDVFVLNNTRPPLGNWFGCTWMNSTGFTKVCGAPPCVIGGAGNNTLHCPTDCFRKHPDATYSRCGSGPWITPRCLVDYPYRLWHYPCTINYTIFKIRMYVGGVEHRLEAACNWTRGERCDLEDRDRSELSPLLLTTTQWQVLPCSFTTLPALSTGLIHLHQNIVDV
With B1, the binding result was “no binding”.

Values taken from patent US6121020, “Hepatitis C E1 and E2 polypeptides and methods of obtaining the same” (Chiron Corporation, dated 2000).
